Laboratory results as given in patent US9504755B2, “Multi-arm polymeric alkanoate conjugates” (Nektar Therapeutics, priority 2008, dated 2016).

How the values were obtained:
[1] = Plasma and tumor pharmacokinetics in H460 tumor-bearing nude mice; format: in vivo, mouse; settings: for AUClast, analyte docetaxel, plasma / AUClast, analyte docetaxel, tumor / Tmax, analyte docetaxel, plasma / Tmax, analyte docetaxel, tumor / Cmax, analyte docetaxel, plasma / Cmax, analyte docetaxel, tumor: single IV; for AUClast, analyte docetaxel, plasma / AUClast, analyte docetaxel, tumor: 25 mg/kg docetaxel or 33 mg/kg conjugate (MTDs); for Tmax, analyte docetaxel, plasma / Tmax, analyte docetaxel, tumor / Cmax, analyte docetaxel, plasma / Cmax, analyte docetaxel, tumor: 25 mg/kg docetaxel or 33 mg/kg conjugate
Method: To assess whether the improved antitumor activity was due to greater plasma and tumor docetaxel exposure following 4-ARM-PEG20K-BA-DOC administration, plasma and tumor homogenates were analyzed after a single IV administration of 4-ARM-PEG20K-BA-DOC or docetaxel in mice bearing H460 tumors. In looking at each of 4-ARM-PEG20K-BA-DOC and docetaxel dosed at their respective maximum tolerated doses (MTDs) of 33 and 25 mg/kg, the following was observed. […] The maximum plasma docetaxel concentration with 4-ARM-PEG20K-BA-DOC was 13-fold lower than that with docetaxel.
The objective of this study was to compare docetaxel pharmacokinetics following 4-ARM-PEG20K-BA-docetaxel with that following docetaxel administration, in plasma and tumor tissue of athymic female mice bearing H460 NSCLC tumors and to determine the effects on complete blood counts. This example summarizes the pharmacokinetic results.
H460 tumor cells were grown in vitro and implanted subcutaneously into female HRLN nude mice. When tumor sizes reached between 172 and 288 mg, animals were dosed by intravenous bolus injection with 25 mg/kg docetaxel or 33 mg/kg 4-ARM-PEG20K-BA-docetaxel at a dosing volume of 10 mL/kg. These dose levels correspond to the maximum tolerated doses for docetaxel and 4-ARM-PEG20K-BA-docetaxel administered on a q7d×3 schedule in this tumor model. Blood and tumor samples (n=7 timepoints with n=3/timepoint) were collected from 0 to 7 days after IV injection. Plasma and tumor samples were analyzed for docetaxel and 4-ARM-PEG20K-BA-docetaxel.

[2] = Pharmacokinetics after IV infusion in Beagle dogs; format: in vivo, dog
Method: The objective of the study was to assess the pharmacokinetics and excretion of docetaxel and 4-ARM-PEG20K-BA-docetaxel after intravenous infusion to dogs.
Pharmacokinetics were evaluated in male dogs (4 dogs/dose level) dosed with 0, 0.75, 2, or 4 mg/kg (0, 15, 40, and 80 mg/m^2/dose) of 4-ARM-PEG20K-BA-docetaxel or 0.75 mg/kg (15 mg/m^2) docetaxel. 4-ARM-PEG20K-BA-docetaxel and docetaxel were administered via a cephalic or saphenous vein disposable catheter as 60-min intravenous infusions at 4 mL/kg/hr. Seventeen blood samples were obtained by jugular venipuncture or Abbacoth IV catheter between 0 and 168 hr post-dose. Plasma concentrations of 4-ARM-PEG20K-BA-docetaxel and docetaxel were determined.

[3] = Population pharmacokinetic modeling of terminal disposition rate constant, rats; format: in vivo; settings: rat
From the text: To further evaluate the sustained plasma docetaxel terminal half-life, a population pharmacokinetic approach was employed.
While determining the pharmacokinetics of docetaxel after administration of docetaxel or 4-ARM-PEG20K-BA-docetaxel, it was observed that reliable values for the terminal disposition rate constant λz could not be obtained for the majority of animals secondary to fluctuation of plasma docetaxel concentrations between adjacent sampling times and/or the occurrence of incomplete concentration-time profiles due to concentrations being near or at the lower limit of quantification (1 ng/mL). In addition, in Example 14, rats were sampled in groups of 15 using alternating, overlapping sparse sampling schemes across groups to encompass the total duration of sampling. All of these factors contributed to the occurrence of sparse data within a given animal's terminal concentration-time profile.
To further investigate and compare docetaxel terminal disposition patterns between docetaxel and 4-ARM-PEG20K-BA-docetaxel, population pharmacokinetic methods were applied to data from rats (Example 14) and dogs (Example 15 and in one additional study). This allowed estimation of population λz values and corresponding half-life values for each treatment group in the presence of incomplete data within individual animals. Specifically, data from all animals within a treatment group and all treatment groups were fit with a nonlinear mixed effect pharmacokinetic model using the program Monolix. Plasma docetaxel concentrations following docetaxel or 4-ARM-PEG20K-BA-docetaxel administration, and plasma 4-ARM-PEG20K-BA-docetaxel concentrations following 4-ARM-PEG20K-BA-docetaxel administration were fit with a model specifying zero-order input of the dose over a defined infusion period and biexponential disposition (Monolix PK Model 26). Docetaxel concentration-time data after 4-ARM-PEG20K-BA-docetaxel were fit with a model having first order input, to reflect metabolism of 4-ARM-PEG20K-BA-docetaxel to the active docetaxel metabolite, and biexponential disposition (Monolix PK Model 31). The parameter of interest for this investigation was the population terminal disposition rate constant, λz to supplement the results described above.

[4] = female, HRLN nude, mouse, in vivo, iv, 25 mg/kg, analyte docetaxel, tumor
[5] = 19 mg/kg conjugate (extrapolated) vs 25 mg/kg docetaxel
[6] = 33 mg/kg conjugate vs 25 mg/kg docetaxel
[7] = 33 mg/kg conjugate vs 25 mg/kg docetaxel, listed as Conjugate Lot 1
[8] = 33 mg/kg conjugate vs 25 mg/kg docetaxel, listed as Conjugate Lot 2
[9] = single IV 33 mg/kg conjugate, listed as Conjugate Lot 1, 33 mg/kg
[10] = single IV 33 mg/kg conjugate, listed as Conjugate Lot 2, 33 mg/kg
[11] = listed as 4-ARM-PEG20K-BA-docetaxel
[12] = male dogs, average over 0.75, 2, 4 mg/kg
[13] = male dogs, single IV dose 0.75 mg/kg
[14] = male dogs, single IV dose 2 mg/kg
[15] = male dogs, single IV dose 4 mg/kg
[16] = docetaxel 5 mg/kg or conjugate 5, 10, 15 mg/kg

CC(=O)O[C@@]12CO[C@@H]1C[C@H](O)[C@@]1(C)C(=O)[C@H](O)C3=C(C)[C@@H](OC(=O)[C@H](O)[C@@H](NC(=O)OC(C)(C)C)c4ccccc4)C[C@@](O)([C@@H](OC(=O)c4ccccc4)[C@H]21)C3(C)C [Docetaxel, reference compound]
concentration at 72 hr ([1]; female, HRLN nude, mouse, in vivo, iv, 25 mg/kg): < 1 ng/mL
AUC(0-t) ([1]; female, HRLN nude, mouse, in vivo, iv, 25 mg/kg, AUClast, analyte docetaxel, tumor): 139 µg·h/mL
Cmax ([1]; female, HRLN nude, mouse, in vivo, iv, 25 mg/kg, analyte docetaxel, plasma): 2570 ng/mL
Cmax [1, 4]: 2340 ng/mL
Tmax [1, 4]: 4 h
Tmax ([1]; female, HRLN nude, mouse, in vivo, iv, analyte docetaxel, plasma): 0.5 h
Tmax ([1]; female, HRLN nude, mouse, in vivo, iv, analyte docetaxel, tumor): ≤ 4 h
AUC(0-t) ([2]; Beagle, dog, plasma, male dogs, single IV dose 0.75 mg/kg, read-out: AUClast, analyte docetaxel): 0.479 µg·h/mL
Cmax ([2]; Beagle, dog, plasma, male dogs, single IV dose 0.75 mg/kg, read-out: Cmax, analyte docetaxel): 223 ng/mL
Tmax ([2]; Beagle, dog, plasma, male dogs, single IV dose 0.75 mg/kg, read-out: Tmax, analyte docetaxel): 0.88 h
t½λz, plasma docetaxel ([3]; in vivo): 40 h

4-ARM-PEG20K-Butanoate-Linked Docetaxel Conjugate [4-ARM-PEG20K-BA-DOC]
AUC, docetaxel in plasma ([1]; 19 mg/kg (58% MTD), extrapolated from the 33 mg/kg dose): 3488^# hr*ng/mL
4-ARM-PEG20K-BA-DOC to Docetaxel Ratio, plasma AUC [1, 5]: 0.6
4-ARM-PEG20K-BA-DOC to Docetaxel Ratio, tumor AUC [1, 5]: 1.3
conjugate AUC, fold lower in tumor compared to plasma ([1]; 33 mg/kg): approximately 2 fold
conjugate Cmax, fold lower in tumor compared to plasma ([1]; 33 mg/kg): 17 fold
Conjugate to Docetaxel ratio, AUC, docetaxel in plasma [1, 6]: 1.0
Conjugate to Docetaxel ratio, AUC, docetaxel in tumor [1, 6]: 2.3
maximum plasma docetaxel concentration, fold lower than with docetaxel [1, 6]: 13 fold
plasma docetaxel AUC compared with docetaxel treatment [1, 6]: similar
tumor docetaxel AUC, fold greater than for docetaxel [1, 6]: 2 fold
maximum plasma docetaxel concentration, fold lower than with docetaxel ([1]; 33 mg/kg conjugate vs 25 mg/kg docetaxel, listed as 4-ARM-PEG20K-BA-docetaxel): about 14 fold
Conjugate to Docetaxel ratio, AUC, docetaxel in plasma [1, 7]: 1.0
Conjugate to Docetaxel ratio, AUC, docetaxel in tumor [1, 7]: 2.3
Conjugate to Docetaxel ratio, Cmax, docetaxel in plasma [1, 7]: 0.08
Conjugate to Docetaxel ratio, Cmax, docetaxel in tumor [1, 7]: 1.3
Conjugate to Docetaxel ratio, AUC, docetaxel in plasma [1, 8]: 0.9
Conjugate to Docetaxel ratio, AUC, docetaxel in tumor [1, 8]: 2.7
Conjugate to Docetaxel ratio, Cmax, docetaxel in plasma [1, 8]: 0.06
Conjugate to Docetaxel ratio, Cmax, docetaxel in tumor [1, 8]: 2.0
conjugate tumor to plasma ratio ([1]; by 168 hr post-dose, 33 mg/kg): about 7
plasma docetaxel concentration ([1]; for up to 168 hr after single IV 33 mg/kg conjugate): above 5 ng/mL
tumor docetaxel concentrations, fold higher than after docetaxel ([1]; from 24 hr post dose through the end of sampling): approximately 5 fold
Tmax, analyte conjugate, plasma ([1]; single IV 33 mg/kg conjugate): 0.5 h
Tmax, analyte conjugate, tumor ([1]; single IV 33 mg/kg conjugate, listed as 4-ARM-PEG20K-BA-docetaxel, 33 mg/kg): ≤ 4 h
AUClast, analyte conjugate, plasma [1, 9]: 1097.606 µg·h/mL
AUClast, analyte conjugate, tumor [1, 9]: 652.823 µg·h/mL
Cmax, analyte conjugate, plasma [1, 9]: 128354 ng/mL
Cmax, analyte conjugate, tumor [1, 9]: 7062 ng/mL
Tmax, analyte conjugate, tumor [1, 9]: 4 h
AUClast, analyte conjugate, plasma [1, 10]: 1852.51 µg·h/mL
AUClast, analyte conjugate, tumor [1, 10]: 718.068 µg·h/mL
Cmax, analyte conjugate, plasma [1, 10]: 118209 ng/mL
Cmax, analyte conjugate, tumor [1, 10]: 7675 ng/mL
AUClast, analyte docetaxel, plasma [1]: 6.013 µg·h/mL
AUClast, analyte docetaxel, tumor [1]: 313,558 hr*ng/mL
AUClast, analyte docetaxel, tumor ([1]; listed as Conjugate Lot 1): 313558 ng·h/mL
AUClast, analyte docetaxel, plasma ([1]; listed as Conjugate Lot 2): 5.57 µg·h/mL
AUClast, analyte docetaxel, tumor ([1]; listed as Conjugate Lot 2): 380617 ng·h/mL
Tmax, analyte docetaxel, plasma [1, 11]: 0.5 h
Tmax, analyte docetaxel, tumor [1, 11]: ≤ 12 h
Cmax, analyte docetaxel, plasma ([1]; listed as Conjugate Lot 1): 195 ng/mL
Cmax, analyte docetaxel, tumor ([1]; listed as Conjugate Lot 1): 2931 ng/mL
Tmax, analyte docetaxel, plasma ([1]; listed as Conjugate Lot 1): 12 h
Tmax, analyte docetaxel, tumor ([1]; listed as Conjugate Lot 1): 12 h
Cmax, analyte docetaxel, plasma ([1]; listed as Conjugate Lot 2): 162 ng/mL
Cmax, analyte docetaxel, tumor ([1]; listed as Conjugate Lot 2): 4623 ng/mL
plasma docetaxel AUC, fold lower than after docetaxel ([2]; dogs, equivalent dose levels of 0.75 mg/kg): ~7 fold
CL, analyte conjugate, average (±SD) [2, 12]: 0.13 mL/min/kg
T1/2, analyte conjugate, average (±SD) [2, 12]: 32 ± 4 h
Vss, analyte conjugate, average (±SD) [2, 12]: 0.26 ± 0.04 L/kg
T1/2, analyte conjugate, average (±SD) ([2]; male dogs, average over 0.75, 2, 4 mg/kg, listed as 4-ARM-PEG20K-BA-docetaxel): 31 h
AUCinf, analyte conjugate [2, 13]: 104.247 µg·h/mL
AUClast, analyte conjugate [2, 13]: 93.084 µg·h/mL
AUClast, analyte docetaxel [2, 13]: 0.064 µg·h/mL
CL, analyte conjugate [2, 13]: 0.12 mL/min/kg
Cmax, analyte conjugate [2, 13]: 7084 ng/mL
Cmax, analyte docetaxel [2, 13]: 2.1 ng/mL
T1/2, analyte conjugate [2, 13]: 28 h
Tmax, analyte conjugate [2, 13]: 1.1 h
Tmax, analyte docetaxel [2, 13]: 0.88 h
Vss, analyte conjugate [2, 13]: 0.23 L/kg
AUCinf, analyte conjugate [2, 14]: 245.446 µg·h/mL
AUClast, analyte conjugate [2, 14]: 232.378 µg·h/mL
AUClast, analyte docetaxel [2, 14]: 0.153 µg·h/mL
CL, analyte conjugate [2, 14]: 0.14 mL/min/kg
Cmax, analyte conjugate [2, 14]: 17731 ng/mL
Cmax, analyte docetaxel [2, 14]: 6.3 ng/mL
T1/2, analyte conjugate [2, 14]: 35 h
Tmax, analyte conjugate [2, 14]: 1.4 h
Tmax, analyte docetaxel [2, 14]: 1.1 h
Vss, analyte conjugate [2, 14]: 0.26 L/kg
AUCinf, analyte conjugate [2, 15]: 611.47 µg·h/mL
AUClast, analyte conjugate [2, 15]: 597.336 µg·h/mL
AUClast, analyte docetaxel [2, 15]: 0.326 µg·h/mL
CL, analyte conjugate [2, 15]: 0.12 mL/min/kg
Cmax, analyte conjugate [2, 15]: 33570 ng/mL
Cmax, analyte docetaxel [2, 15]: 19 ng/mL
T1/2, analyte conjugate [2, 15]: 32 h
Tmax, analyte conjugate [2, 15]: 6.8 h
Tmax, analyte docetaxel [2, 15]: 12 h
Vss, analyte conjugate [2, 15]: 0.31 L/kg
plasma docetaxel half-life, fold longer than after docetaxel [3]: about 4 fold
Mean (SE) λz, plasma docetaxel [3, 16]: 0.00412 (0.001) hr^−1
t½λz, plasma docetaxel [3, 16]: 168 h
